Here are results for six sequences from the supplement of paper PMC5998384.

Series [1] concerns HeLa Kyoto. Description: thermal stability score vs G1/S (z-score of summed log2 fold changes over temperatures); higher = more thermally stable than in G1/S.
Series [2] concerns HeLa Kyoto. In words: solubility in G1/S (NP-40 vs SDS abundance) (log2 ratio); higher = more soluble. To be noted: cell cycle stage: G1/S.
The subject of series [3] is HeLa Kyoto. In words: melting temperature (median over replicates), in situ; higher = more thermally stable.
In series [4] the test system is HeLa Kyoto. Description: solubility change mitosis vs G1/S (difference of NP-40 vs SDS log2 ratios) (log2 ratio difference); higher = more soluble in mitosis.
[5] abbreviates: cell cycle stage: early G1 (4.5 h after nocodazole release).
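For melting temperature (median over replicates), in situ in this document: HeLa Kyoto cells synchronized by double thymidine or nocodazole block, proteins quantified by TMT10plex mass spectrometry, three independent biological replicates.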
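For solubility change mitosis vs G1/S (difference of NP-40 vs SDS log2 ratios) in this document: synchronized HeLa Kyoto cells (double thymidine block for G1/S, nocodazole release for mitosis), protein amounts in NP-40 versus SDS lysates quantified by mass spectrometry, three biological replicates.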
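For solubility in G1/S (NP-40 vs SDS abundance) in this document: HeLa Kyoto cells arrested at G1/S by double thymidine block, proteins quantified by TMT10plex mass spectrometry in mild NP-40 versus SDS extracts, three biological replicates.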
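For thermal stability score vs G1/S (z-score of summed log2 fold changes over temperatures) in this document: synchronized HeLa Kyoto cells, proteins quantified by TMT10plex mass spectrometry, three biological replicates, mitosis taken 0.5 h after nocodazole release, G1/S directly after double thymidine block.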

Consider “MAGVRSLRCSRGCAGGCECGDKGKCSDSSLLGKRLSEDSSRHQLLQKWASMWSSMSEDASVADMERAQLEEEAAAAEERPLVFLCSGCRRPLGDSLSWVASQEDTNCILLRCVSCNVSVDKEQKLSKREKENGCVLETLCCAGCSLNLGYVYRCTPKNLDYKRDLFCLSVEAIESYVLGSSEKQIVSEDKELFNLESRVEIEKSLTQMEDVLKALQMKLWEAESKLSFATCKS [MIS18A]”, for which the thermal stability score with HeLa Kyoto [1] (setting [5]) was -2.17; in the series on HeLa Kyoto [1] (cell cycle stage: mitosis) it was -2.88. In addition, the “solubility in G1/S (log2)” value in the series with HeLa Kyoto [2] is -0.162. Besides, the values for the melting temperature with HeLa Kyoto [3] (cell cycle stage: G1/S) and in the series with HeLa Kyoto [3] (cell cycle stage: mitosis) were 51.3 °C and 51.9 °C, respectively. Moreover, the “solubility change mitosis (log2)” value in the series on HeLa Kyoto [4] was 0.371.
In the case of “MSDGDYDYLIKFLALGDSGVGKTSVLYQYTDGKFNSKFITTVGIDFREKRVVYRASGPDGATGRGQRIHLQLWDTAGQERFRSLTTAFFRDAMGFLLLFDLTNEQSFLNVRNWISQLQMHAYCENPDIVLCGNKSDLEDQRVVKEEEAIALAEKYGIPYFETSAANGTNISQAIEMLLDLIMKRMERCVDKSWIPEGVVRSNGHASTDQLSEEKEKGACGC [RAB27A]”, the thermal stability score in the series with HeLa Kyoto [1] (setting [5]) came to 2.41; with HeLa Kyoto [1] (cell cycle stage: mitosis) it was 2.1. Further, the “solubility in G1/S (log2)” value in the series with HeLa Kyoto [2] came to 0.222. In addition, the melting temperature with HeLa Kyoto [3] (cell cycle stage: G1/S) was determined as 52.7 °C; in the series on HeLa Kyoto [3] (cell cycle stage: mitosis), 53.9 °C. Moreover, the “solubility change mitosis (log2)” value in the series with HeLa Kyoto [4] is -0.0891.
Regarding “MSHPDYRMNLRPLGTPRGVSAVAGPHDIGASPGDKKSKNRSTRGKKKSIFETYMSKEDVSEGLKRGTLIQGVLRINPKKFHEAFIPSPDGDRDIFIDGVVARNRALNGDLVVVKLLPEEHWKVVKPESNDKETEAAYESDIPEELCGHHLPQQSLKSYNDSPDVIVEAQFDGSDSEDGHGITQNVLVDGVKKLSVCVSEKGREDGDAPVTKDETTCISQDTRALSEKSLQRSAKVVYILEKKHSRAATGFLKLLADKNSELFRKYALFSPSDHRVPRIYVPLKDCPQDFVARPKDYANTLFICRIVDWKEDCNFALGQLAKSLGQAGEIEPETEGILTEYGVDFSDFSSEVLECLPQGLPWTIPPEEFSKRRDLRKDCIFTIDPSTARDLDDALSCKPLADGNFKVGVHIADVSYFVPEGSDLDKVAAERATSVYLVQKVVPMLPRLLCEELCSLNPMSDKLTFSVIWTLTPEGKILDEWFGRTIIRSCTKLSYEHAQSMIESPTEKIPAKELPPISPEHSSEEVHQAVLNLHGIAKQLRQQRFVDGALRLDQLKLAFTLDHETGLPQGCHIYEYRESNKLVEEFMLLANMAVAHKIHRAFPEQALLRRHPPPQTRMLSDLVEFCDQMGLPVDFSSAGALNKSLTQTFGDDKYSLARKEVLTNMCSRPMQMALYFCSGLLQDPAQFRHYALNVPLYTHFTSPIRRFADVLVHRLLAAALGYRERLDMAPDTLQKQADHCNDRRMASKRVQELSTSLFFAVLVKESGPLESEAMVMGILKQAFDVLVLRYGVQKRIYCNALALRSHHFQKVGKKPELTLVWEPEDMEQEPAQQVITIFSLVEVVLQAESTALKYSAILKRPGTQGHLGPEKEEEESDGEPEDSSTS [DIS3L2]”, the thermal stability score is -0.153 with HeLa Kyoto [1] (setting [5]) and -0.198 in the series with HeLa Kyoto [1] (cell cycle stage: mitosis). For the same sequence, the “solubility in G1/S (log2)” value with HeLa Kyoto [2] is -0.0925. In addition, the values for the melting temperature in the series on HeLa Kyoto [3] (cell cycle stage: G1/S) and in the series with HeLa Kyoto [3] (cell cycle stage: mitosis) were 50.6 °C and 50.5 °C, respectively. Besides, the “solubility change mitosis (log2)” value in the series with HeLa Kyoto [4] was -0.1.
In the case of “MEKTLETVPLERKKREKEQFRKLFIGGLSFETTEESLRNYYEQWGKLTDCVVMRDPASKRSRGFGFVTFSSMAEVDAAMAARPHSIDGRVVEPKRAVAREESGKPGAHVTVKKLFVGGIKEDTEEHHLRDYFEEYGKIDTIEIITDRQSGKKRGFGFVTFDDHDPVDKIVLQKYHTINGHNAEVRKALSRQEMQEVQSSRSGRGGNFGFGDSRGGGGNFGPGPGSNFRGGSDGYGSGRGFGDGYNGYGGGPGGGNFGGSPGYGGGRGGYGGGGPGYGNQGGGYGGGYDNYGGGNYGSGNYNDFGNYNQQPSNYGPMKSGNFGGSRNMGGPYGGGNYGPGGSGGSGGYGGRSRY [HNRNPA2B1]”, the results for the thermal stability score with HeLa Kyoto [1] (setting [5]) and in the series on HeLa Kyoto [1] (cell cycle stage: mitosis) were 5.29 and 6.68, respectively. For the same sequence, the “solubility in G1/S (log2)” value with HeLa Kyoto [2] was -0.087. Besides, the melting temperature stood at 48.1 °C with HeLa Kyoto [3] (cell cycle stage: G1/S) and 49 °C in the series with HeLa Kyoto [3] (cell cycle stage: mitosis). Moreover, the “solubility change mitosis (log2)” value in the series on HeLa Kyoto [4] is 0.321.
For “MEADIITNLRCRLKEAEEERLKAAQYGLQLVESQNELQNQLDKCRNEMMTMTESYEQEKYTLQREVELKSRMLESLSCECEAIKQQQKMHLEKLEEQLSRSHGQEVNELKTKIEKLKVELDEARLSEKQLKHQVDHQKELLSCKSEELRVMSERVQESMSSEMLALQIELTEMESMKTTLKEEVNELQYRQEQLELLITNLMRQVDRLKEEKEEREKEAVSYYNALEKARVANQDLQVQLDQALQQALDPNSKGNSLFAEVEDRRAAMERQLISMKVKYQSLKKQNVFNREQMQRMKLQIATLLQMKGSQTEFEQQERLLAMLEQKNGEIKHLLGEIRNLEKFKNLYDSMESKPSVDSGTLEDNTYYTDLLQMKLDNLNKEIESTKGELSIQRMKALFESQRALDIERKLFANERCLQLSESENMKLRAKLDELKLKYEPEETVEVPVLKKRREVLPVDITTAKDACVNNSALGGEVYRLPPQKEETQSCPNSLEDNNLQLEKSVSIYTPVVSLSPHKNLPVDMQLKKEKKCVKLIGVPADAEALSERSGNTPNSPRLAAESKLQTEVKEGKETSSKLEKETCKKLHPILYVSSKSTPETQCPQQ [SPDL1]”, the thermal stability score with HeLa Kyoto [1] (setting [5]) is 0.59; in the series on HeLa Kyoto [1] (cell cycle stage: mitosis), 0.359. In addition, the “solubility in G1/S (log2)” value in the series on HeLa Kyoto [2] is 0.268. For the same sequence, the melting temperature in the series on HeLa Kyoto [3] (cell cycle stage: G1/S) is 47.2 °C; in the series on HeLa Kyoto [3] (cell cycle stage: mitosis) it was 50.1 °C. For the same sequence, the “solubility change mitosis (log2)” value in the series with HeLa Kyoto [4] turned out to be 0.278.
Turning to “MATEHPEPPKAELQLPPPPPPGHYGAWAAQELQAKLAEIGAPIQGNREELVERLQSYTRQTGIVLNRPVLRGEDGDKAAPPPMSAQLPGIPMPPPPLGLPPLQPPPPPPPPPPGLGLGFPMAHPPNLGPPPPLRVGEPVALSEEERLKLAQQQAALLMQQEERAKQQGDHSLKEHELLEQQKRAAVLLEQERQQEIAKMGTPVPRPPQDMGQIGVRTPLGPRVAAPVGPVGPTPTVLPMGAPVPRPRGPPPPPGDENREMDDPSVGPKIPQALEKILQLKESRQEEMNSQQEEEEMETDARSSLGQSASETEEDTVSVSKKEKNRKRRNRKKKKKPQRVRGVSSESSGDREKDSTRSRGSDSPAADVEIEYVTEEPEIYEPNFIFFKRIFEAFKLTDDVKKEKEKEPEKLDKLENSAAPKKKGFEEEHKDSDDDSSDDEQEKKPEAPKLSKKKLRRMNRFTVAELKQLVARPDVVEMHDVTAQDPKLLVHLKATRNSVPVPRHWCFKRKYLQGKRGIEKPPFELPDFIKRTGIQEMREALQEKEEQKTMKSKMREKVRPKMGKIDIDYQKLHDAFFKWQTKPKLTIHGDLYYEGKEFETRLKEKKPGDLSDELRISLGMPVGPNAHKVPPPWLIAMQRYGPPPSYPNLKIPGLNSPIPESCSFGYHAGGWGKPPVDETGKPLYGDVFGTNAAEFQTKTEEEEIDRTPWGELEPSDEESSEEEEEEESDEDKPDETGFITPADSGLITPGGFSSVPAGMETPELIELRKKKIEEAMDGSETPQLFTVLPEKRTATVGGAMMGSTHIYDMSTVMSRKGPAPELQGVEVALAPEELELDPMAMTQKYEEHVREQQAQVEKEDFSDMVAEHAAKQKQKKRKAQPQDSRGGSKKYKEFKF [SF3B2]”, the thermal stability score in the series on HeLa Kyoto [1] (setting [5]) is -1.42; with HeLa Kyoto [1] (cell cycle stage: mitosis), -2.09. Further, the “solubility in G1/S (log2)” value in the series on HeLa Kyoto [2] is -0.165. Also, the melting temperature with HeLa Kyoto [3] (cell cycle stage: G1/S) is 50.5 °C; in the series with HeLa Kyoto [3] (cell cycle stage: mitosis), 49.9 °C. Also, the “solubility change mitosis (log2)” value in the series on HeLa Kyoto [4] is 0.237.
